# In IntAct's records for PubMed 23728178:
# B1: Complement factor H-related protein 1 (Homo sapiens), Q03591 (parent)
# chain: MWLLVSVILISRISSVGGEATFCDFPKINHGILYDEEKYKPFSQVPTGEVFYYSCEYNFVSPSKSFWTRITCTEEGWSPTPKCLRLCFFPFVENGHSESSGQTHLEGDTVQIICNTGYRLQNNENNISCVERGWSTPPKCRSTDTSCVNPPTVQNAHILSRQMSKYPSGERVRYECRSPYEMFGDEEVMCLNGNWTEPPQCKDSTGKCGPPPPIDNGDITSFPLSVYAPASSVEYQCQNLYQLEGNKRITCRNGQWSEPPKCLHPCVISREIMENYNIALRWTAKQKLYLRTGESAEFVCKRGYRLSSRSHTLRTTCWDGKLEYPTCAKR
# partner: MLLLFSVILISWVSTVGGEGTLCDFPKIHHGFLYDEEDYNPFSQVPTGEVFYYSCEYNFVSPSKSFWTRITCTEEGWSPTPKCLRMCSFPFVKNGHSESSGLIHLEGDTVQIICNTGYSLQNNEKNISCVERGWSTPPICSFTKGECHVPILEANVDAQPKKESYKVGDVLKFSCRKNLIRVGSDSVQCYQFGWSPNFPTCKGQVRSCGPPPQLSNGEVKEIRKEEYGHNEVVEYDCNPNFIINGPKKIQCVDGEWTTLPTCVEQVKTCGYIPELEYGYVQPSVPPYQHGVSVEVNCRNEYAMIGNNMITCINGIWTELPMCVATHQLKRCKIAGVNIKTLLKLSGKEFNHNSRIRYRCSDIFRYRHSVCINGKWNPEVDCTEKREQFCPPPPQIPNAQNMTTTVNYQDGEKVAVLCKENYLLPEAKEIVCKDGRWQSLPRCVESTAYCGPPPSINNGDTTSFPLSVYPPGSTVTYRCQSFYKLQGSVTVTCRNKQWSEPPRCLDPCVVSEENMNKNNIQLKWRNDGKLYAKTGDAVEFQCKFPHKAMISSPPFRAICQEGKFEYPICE
# B2: Complement factor H-related protein 1 (Homo sapiens), Q03591 (parent)
# chain: B1 chain
# Variants of: B1
# Conditions: with fhr5_human CFHR5, Q9BXR6
row,effect of a mutation on the interaction,Variant
1,with no effect,MWLLVSVILISRISSVGGEATFCDFPKINHGILYDEEKYKPFSQVPTGEVFYYSCEYNFVSPSKSFWTRITCTEEGWSPTPKCLRLCFFPFVENGHSESSGQTHLEGDTVQIICNTGYRLQNNENNISCVERGWSTPPKCRSTDTSCVNPPTVQNAYIVSRQMSKYPSGERVRYQCRSPYEMFGDEEVMCLNGNWTEPPQCKDSTGKCGPPPPIDNGDITSFPLSVYAPASSVEYQCQNLYQLEGNKRITCRNGQWSEPPKCLHPCVISREIMENYNIALRWTAKQKLYLRTGESAEFVCKRGYRLSSRSHTLRTTCWDGKLEYPTCAKR [H157Y;L159V;E175Q]

# Variants of: B2
# Conditions: with fhr2_human CFHR2, P36980
row,effect of a mutation on the interaction,Variant
1,with no effect,MWLLVSVILISRISSVGGEATFCDFPKINHGILYDEEKYKPFSQVPTGEVFYYSCEYNFVSPSKSFWTRITCTEEGWSPTPKCLRLCFFPFVENGHSESSGQTHLEGDTVQIICNTGYRLQNNENNISCVERGWSTPPKCRSTDTSCVNPPTVQNAYIVSRQMSKYPSGERVRYQCRSPYEMFGDEEVMCLNGNWTEPPQCKDSTGKCGPPPPIDNGDITSFPLSVYAPASSVEYQCQNLYQLEGNKRITCRNGQWSEPPKCLHPCVISREIMENYNIALRWTAKQKLYLRTGESAEFVCKRGYRLSSRSHTLRTTCWDGKLEYPTCAKR [H157Y;L159V;E175Q]
